Measurements as given in patent US20090298765A1 (Takeda / Millennium, published 2009).
Starred links: 1 amine or outer side, 2 acyl side, 3 side chain; linkers in the order of their positions; H or OH if unused. Non-standard residues stand in square brackets, D forms with d. Primed or numbered codes have the meaning given here. No end group written: not given here. Trp(For)″ = Trp(CHO), formyl-Trp, O=Cn1cc(C[C@H](N[*:1])C(=O)[*:2])c2ccccc21; Arg(Me) = CNC(=N)NCCC[C@H](N)C(=O)O; azaGly = NNC(=O)O

Target: T1, human OT7T175 (metastin receptor) (human, UniProt Q969F8 1-398)
T1 construct: expressed on CHO cells; also called hOT7T175; hOT7T175-expressed CHO cells
Assay: competition with Cy-5 metastin (40-54) on hOT7T175-CHO cells, FMAT
Description: hOT7T175-Expressed CHO cells were cultured in MEM-α medium (nucleic acid-free) containing 10% dialyzed serum. The medium was removed and the adhered cells were washed with PBS. Then, PBS containing 5 mM EDTA was added and the cells were scraped from a flask with a cell scraper.
To each well of a 96-Well Black Clear Bottom Microplate (Applied Biosystems, Inc.), 10 μL of assay buffer containing 1% dimethylsulfoxide was added to examine total binding, 10 μL of 10 μM non-labeled peptide (having the same amino acid sequence as that of labeled one) solution diluted with assay buffer to examine non-specific binding, and 10 μL of a test compound diluted with assay buffer to examine a binding inhibition activity of the test compound, and furthermore, 90 μL each of the cell suspension was dispensed to each well. […] Specific binding is calculated as non-specific binding subtracted from total binding. The binding inhibition activity of a test compound is shown by a ratio of the value obtained by subtracting a measured value in presence of a test compound from the total binding to the specific binding.

T1 sequence (Q969F8 whole entry L364H): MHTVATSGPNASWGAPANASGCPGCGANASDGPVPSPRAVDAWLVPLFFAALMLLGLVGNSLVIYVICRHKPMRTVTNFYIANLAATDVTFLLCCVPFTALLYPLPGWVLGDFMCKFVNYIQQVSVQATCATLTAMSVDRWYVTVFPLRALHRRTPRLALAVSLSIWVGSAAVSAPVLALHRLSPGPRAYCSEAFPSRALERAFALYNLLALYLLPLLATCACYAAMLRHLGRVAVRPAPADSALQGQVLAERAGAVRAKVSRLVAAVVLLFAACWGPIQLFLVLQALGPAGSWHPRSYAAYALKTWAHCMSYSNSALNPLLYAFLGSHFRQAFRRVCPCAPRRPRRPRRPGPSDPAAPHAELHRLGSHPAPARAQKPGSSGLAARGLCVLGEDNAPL

B1: [Ala1]MS10 (peptide)
peptide: ANWNSFGLRF-NH2
notes: also called Compound No. 72
  IC50: 540 nM

B2: [D-Tyr1,D-Ala3,AzaGly7,Arg(Me)9]MS10 (peptide)
peptide: [dY]N[dA]NSF[azaGly]L[Arg(Me)]F-NH2
notes: also called Compound No. 252
  IC50: 580 nM

B3: [Leu3]MS10 (peptide)
peptide: YNLNSFGLRF-NH2
notes: also called Compound No. 68
  IC50: 7.7 nM

B4: [D-Tyr1,Thr3,AzaGly7,Arg(Me)9]MS10 (peptide)
peptide: [dY]NTNSF[azaGly]L[Arg(Me)]F-NH2
notes: also called Compound No. 221
  IC50: 95 nM

B5: [Lys9]MS10 (peptide)
peptide: YNWNSFGLKF-NH2
notes: also called Compound No. 44
  IC50: 190 nM

B6: [D-Tyr1,Ser3,AzaGly7,Arg(Me)9]MS10 (peptide)
peptide: [dY]NSNSF[azaGly]L[Arg(Me)]F-NH2
notes: also called Compound No. 191
  IC50: 300 nM

B7: [Val8]MS10 (peptide)
peptide: YNWNSFGVRF-NH2
notes: also called Compound No. 107
  IC50: 120 nM

B8: [Leu2]MS10 (peptide)
peptide: YLWNSFGLRF-NH2
notes: also called Compound No. 59
  IC50: 340 nM

B9: [Asp2]MS10 (peptide)
peptide: YDWNSFGLRF-NH2
notes: also called Compound No. 57
  IC50: 100 nM

B10: [D-Tyr1,Pro3,AzaGly7,Arg(Me)9]MS10 (peptide)
peptide: [dY]NPNSF[azaGly]L[Arg(Me)]F-NH2
modifications: N-terminus assumed
SMILES: CNC(=N)NCCC[C@H](NC(=O)[C@H](CC(C)C)NC(=O)NNC(=O)[C@H](Cc1ccccc1)NC(=O)[C@H](CO)NC(=O)[C@H](CC(N)=O)NC(=O)[C@@H]1CCCN1C(=O)[C@H](CC(N)=O)NC(=O)[C@H](N)Cc1ccc(O)cc1)C(=O)N[C@@H](Cc1ccccc1)C(N)=O
notes: also called Compound No. 253
  IC50: 27 nM

B11: [Tyr2]MS10 (peptide)
peptide: YYWNSFGLRF-NH2
notes: also called Compound No. 58
  IC50: 16 nM

B12: [Tyr6]MS10 (peptide)
peptide: YNWNSYGLRF-NH2
notes: also called Compound No. 150
  IC50: 320 nM

B13: [Ala3]MS10 (peptide)
peptide: YNANSFGLRF-NH2
notes: also called Compound No. 67
  IC50: 27 nM

B14: [Leu1]MS10 (peptide)
peptide: LNWNSFGLRF-NH2
notes: also called Compound No. 73
  IC50: 220 nM

B15: [Ser3]MS10 (peptide)
peptide: YNSNSFGLRF-NH2
notes: also called Compound No. 69
  IC50: 83 nM

B16: [Trp(For)10]MS10 (peptide)
peptide: YNWNSFGLR[Trp(For)″]-NH2
notes: also called Compound No. 186
  IC50: 460 nM

B17: [Lys3]MS10 (peptide)
peptide: YNKNSFGLRF-NH2
notes: also called Compound No. 71
  IC50: 66 nM

B18: [Tyr5]MS10 (peptide)
peptide: YNWNYFGLRF-NH2
notes: also called Compound No. 23
  IC50: 400 nM

B19: [Asp3]MS10 (peptide)
peptide: YNDNSFGLRF-NH2
notes: also called Compound No. 70
  IC50: 200 nM

B20: des(1-2)-Acetyl-[Arg3,AzaGly7,Arg(Me)9]MS10 (peptide)
peptide: Ac-RNSF[azaGly]L[Arg(Me)]F-NH2
SMILES: CNC(=N)NCCC[C@H](NC(=O)[C@H](CC(C)C)NC(=O)NNC(=O)[C@H](Cc1ccccc1)NC(=O)[C@H](CO)NC(=O)[C@H](CC(N)=O)NC(=O)[C@H](CCCNC(=N)N)NC(C)=O)C(=O)N[C@@H](Cc1ccccc1)C(N)=O
notes: also called Compound No. 275
  IC50: 410 nM

B21: des(1-2)-Acetyl-[Thr3,AzaGly7,Arg(Me)9]MS10 (peptide)
peptide: Ac-TNSF[azaGly]L[Arg(Me)]F-NH2
SMILES: CNC(=N)NCCC[C@H](NC(=O)[C@H](CC(C)C)NC(=O)NNC(=O)[C@H](Cc1ccccc1)NC(=O)[C@H](CO)NC(=O)[C@H](CC(N)=O)NC(=O)[C@@H](NC(C)=O)[C@@H](C)O)C(=O)N[C@@H](Cc1ccccc1)C(N)=O
notes: also called Compound No. 276
  IC50: 480 nM

B22: des(1)-MS10 (peptide)
peptide: NWNSFGLRF-NH2
notes: also called Compound No. 4
  IC50: 260 nM
